Measurements reported in US11207289B2, “Use of benzofuran lignans to induce IL-25 expression and suppress mammary tumor metastasis” (ACADEMIA SINICA, priority 2016, dated 2021).

B1: IL-25: human and mouse IL-25 recombinant protein (protein, UniProt Q9H293 33-177, looked up)
Interleukin-25: YSHWPSCCPSKGQDTSEELLRWSTVPVPPLEPARPNRHPESCRASEDGPLNSRAISPWRYELDRDLNRLPQDLYHARCLCPHCVSLQTGSHMDPRGNSELLYHNQTVFYRRPCHGEKGTHKGYCLERRLYRVSLACVCVRPRVMG
modifications: also mouse IL-25
notes: human and mouse IL-25 recombinant protein

How the values were obtained:
IL-25 = IL-25 expression in lung fibroblasts, 4T1 tumor resection model (IF staining, flow cytometry); type: in vivo, mice
Procedure: BALB/c mice were subcutaneously injected with 4T1-Luc2 cells (5×10^5/100 μl PBS/mouse) into the fourth mammary fat pad under isoflurane anesthesia. Tumor growth was monitored by measuring the tumor volume according to the formula: volume=length×(width)^2/2. After tumors were established (180-200 mm^3) on day 14, test mice were divided into different groups (8 mice/group) and subjected to different treatments. At 15 days post tumor cell implantation, primary 4T1 tumors in situ were surgically removed by a tumor resection process. For drug treatment, mice were administered with different agents, including vehicle-control (PBS), mouse IL-25 protein (10 μg/kg, ProSpec, Vineland, N.J.), Q2-3 (2, 20 or 100 μg/kg) or docetaxel (2 mg/kg; Sigma-Aldrich), by intravenous injection for 3 weeks (3 injections/week) post tumor resection. For in vivo neutralization of mouse IL-25 activity, mice were treated intraperitoneally with either 100 μg anti-mouse IL-25 (IL-17E) antibody (clone 35B; Biolegend) or isotype control rat IgG (100 μg; rat, IgG1κ; Biolegend) at days 0, 3, 6, 9, 12, 15, 18 post tumor resection. To detect metastasis of human MDA-MD-231-Luc2 tumor cells, nude mice were injected subcutaneously with 5×10^5 MDA-MD-231-Luc2 cells into the mammary fat pad under isoflurane anesthesia. After tumors were established (250-350 mm^3) on day 24, test mice were divided into different groups (8 mice/group) and subjected to different treatments. At 25 days post tumor cell implantation, primary MDA-MD-231-Luc2 tumors in situ were surgically removed by a tumor resection process. For drug treatment, mice were administered with PBS (vehicle-control), Q2-3 (100 μg/kg), docetaxel (5 mg/kg) or Q2-3 (100 μg/kg)+docetaxel (5 mg/kg), by intravenous injection for 3 weeks (3 injections/week) post tumor resection. To monitor the progression of mouse (4T1) or human (MDA-MD-231) metastatic tumors, test mice treated with different drugs/agents were compared for their tumor metastatic activity and survival rate aftern another 8 weeks. Bioluminescence signals from the 4T1-luc2 tumor cells in test mice were analyzed using a non-invasive IVIS imaging system (Calipers, Hopkinton, Mass.) after intraperitoneal injection of 150 mg/kg D-luciferin (NanoLight technology, Pinetop, Ariz.).
Lung tissue specimens obtained from each tumor-resected mouse were fixed with 4% formalin and embedded in paraffin. For histological comparison, 6 μm-thick tissue sections were made and stained with hematoxylin and eosin (H&E). For immunofluorescence staining, fixed tissue sections were initially immersed in boiling sodium citrate buffer (0.01 M sodium citrate buffer, pH 6.0) for 30 min Lung tissue sections were blocked with 5% nonfat milk, and incubated with anti-FSP-1 antibody (1:200 dilution; Millipore), FITC-conjugated anti-CD206 antibody (1:200 dilution; Biolegend) or PE-conjugated anti-IL-25 antibody (1:100; R&D) in 1% nonfat milk for 1 hour at room temperature. Sections were then washed with PBS containing 0.1% Tween 20. To detect primary antibodies, some sections were incubated with FITC-conjugated anti-mouse-IgG (1:200; Jackson Immunoresearch, West Grove, Pa.) for FSP-1. 4′,6-Diamidino-2-phenylindole dihydrochloride (1 μg/ml; Sigma-Aldrich) was used to stain the nuclei. Fluorescence microscopy evaluation of immunostained tissue sections was performed using a Zeiss Axiovert 200 M microscope (Carl Zeiss, Heidelberg, Germany) Images were captured with a digital camera (Orca ER, Hamamatsu) and processed using Axiovision 4.6.3 (Carl Zeiss).
For detection of myeloid derived suppressor cells (MDSCs), cells from mouse lung tissue in each group were collected and stained for 30 min at 4° C. with antibodies against specific cell markers, including FITC-conjugated anti-mouse CD11b (for cell surface), APC-Cy7 conjugated anti-mouse Ly-6C and PE conjugated anti-mouse Ly-6G, (both for intracellular staining). All three antibodies were obtained from Biolegend, (San Diego, Calif.). […]

MDA-MB-231 cells = assay: MTT growth activity of MDA-MB-231 cells in fibroblast conditioned media; type: cell-based, human; settings: MTT at 5 days; media applied every 24 hours; IL-25 protein 100 ng/ml
Procedure: (§1) M10, WI38, SKBR3, and MDA-MB-231 cells (1×10^5 cells/ml) dispensed in 96-well plates were incubated with vehicle or test compounds (Q2-3) for 24 h or 72 h in corresponding basal medium in a 5% CO2 incubator. To evaluate the effect of secreted IL-25 from Q2-3-treated fibroblasts on growth activity of mammary tumor cells, 4T1 and MDA-MB-231 cells (1×10^4 cells/ml) dispensed in 96-well plates were incubated with control medium or different fibroblast conditioned media (200 μl/ml) which was changed daily for 5 days. All treatments were performed in triplicate cell cultures. The growth activity of cells was assayed using a 3-(4, 5-dimethythiazol-2-yl)-2, 5-diphenyl tetrazolium bromide (MTT; Sigma-Aldrich) colorimetric method. The absorbance at 570 nm (A570) was measured using a multiwall scanning spectrophotometer.
(§2) To pull down and deplete IL-25 protein molecules in 3T3 or MDA-MB-231 cell conditioned media, the Dynabeads antibody coupling kit (Life Technology; 14311D) was used according to the manufacturer's recommendations, yielding 10 mg/ml anti-IL25 antibody (ProteinTech, Chicago, Ill.)-coupled beads. The rabbit IgG (ProteinTech, Chicago, Ill.) was used as an isotype control antibody. […] The antibody-pulled down proteins from 3T3-CM, NHDF-CM or WI38-CM, were detected for the content of secreted IL-25 protein in each conditioned medium using western blot analysis. […]

4T1 cells = assay: MTT growth activity of 4T1 cells in fibroblast conditioned media; type: cell-based, mouse; settings: MTT at 5 days; media applied every 24 hours; IL-25 protein 100 ng/ml
Procedure: as §1, §2

caspases 8 and 3 = assay: Western blot of cleavage of caspases 8 and 3 in MDA-MB-231 cells; type: cell-based, human
Procedure: MDA-MB231 and MCF-7 cells were seeded in 6-well plate at 10^5 cells/well for 24 h before transfection. siRNAs used for knockdown of human IL-25 receptor (IL25-RB) were purchased from Biotools (Taiwan, ROC) as follows: IL-17RB-homo-448 (IL-25R-1 siRNA); IL-17RB-homo-519 ([…]); IL-17RB-homo-956 ([…]); negative control (Neg). At the beginning of transfection, each test IL25R siRNA oligomers (100 pmol) was diluted in 250 μl Opti-MEM I Reduced Serum Medium. Aliquots of 5 μl Lipofectamine 2000 transfection reagent (Invitrogen) were diluted with 250 μl Opti-MEM I Reduced Serum Medium. Diluted oligomers were mixed gently with the diluted Lipofectamine 2000 and incubated for 20 min at room temperature. The oligomer-Lipofectamine 2000 complexes were subsequently added to each well containing cells and medium. Cells were incubated at 37° C. for 72 h until test cells were ready to be treated with IL25 cytokine or a different CM.
Cell lysates of 3T3, WI38, NHDF, MDA-MB-231, MCF-10A and MCF-7 or the IL-25-pulled down protein lysates from 3T3, WI38 or NHDF conditioned media were resolved by SDS PAGE using 8, 10 or 15% stepwise gels. […] Loading of equal amounts of protein was assessed using the mouse β-actin protein as a reference. […] Quantification of protein in luminescent bands was performed using ImageJ software. […]

Molecule	total FSP-1+ER-TR7+ fibroblast population in lung (IL-25; 3 weeks post tumor resection, PBS control 5.2%)	cell population of IL-25+ fibroblasts (FSP-1+ER-TR7+IL-25+ cells) in lung (IL-25; 3 weeks post tumor resection, PBS control 16.7%)	IL-25 expression in lung fibroblasts (IF staining) (IL-25; Q2-3 100 μg/kg, 21 days post tumor resection)	growth activity of MDA-MB-231 cells (MDA-MB-231 cells)	growth activity of 4T1 cells (4T1 cells)	cleavage of caspases 8 and 3 (caspases 8 and 3; MDA-MB-231, IL-25 100 ng/ml, 24 h)	cleavage of caspases 8 and 3 in cells treated with IL-25R siRNA (caspases 8 and 3; MDA-MB-231 treated with IL-25R siRNA)
CC(=O)O[C@@]12CO[C@@H]1C[C@H](O)[C@@]1(C)C(=O)[C@H](O)C3=C(C)[C@@H](OC(=O)[C@H](O)[C@@H](NC(=O)OC(C)(C)C)c4ccccc4)C[C@@](O)([C@@H](OC(=O)c4ccccc4)[C@H]21)C3(C)C [DT, docetaxel, reference compound]	did not increase	did not increase	little or no IL-25 expression				
B1				decreased the growth activity	decreased the growth activity	resulted in the cleavage of caspases 8 and 3	not able to induce
